± gives the standard deviation.
Assay: protein stability index of a GFP-peptide fusion (GPS, HEK-293T) (PSI 1-6); higher = more stable
[1] = treatment: DMSO, c terminus: native
[2] = treatment: MLN4924 1 uM, 8 h, c terminus: native
[3] = treatment: DMSO, c terminus: a fixed tail appended
[4] = treatment: MLN4924 1 uM, 8 h, c terminus: a fixed tail appended
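Further: 24-mer peptide tiles fused after GFP, lentivirally expressed, FACS-sorted into six equal bins by GFP/DsRed ratio, decoded by Illumina sequencing, PSI is the read-weighted mean bin number.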

Row | Sequence | protein stability index [1] | protein stability index [2] | protein stability index [3] | protein stability index [4]
1 | PDTRHPCSLGSSLVADYSDSESE [YJU2B] | 5.39 ± 0.1 | 5.29 ± 0.13 |  | 
2 | AQQFALMAPLLFNGCRSGEIFAID [DCAF4] |  |  | 2.6 ± 0.72 | 2.64 ± 0.34
3 | EKSIEQTQIKGLKNKPKKMGHIKP [PHTF1] |  |  | 3.93 ± 0.24 | 4.21 ± 0.25
4 | KGGLVWDENSSDGRYVKENCKPLK [CLK3] |  |  | 4.53 ± 0.098 | 4.82 ± 0.12
5 | WLDNPERWNKVKMVVSREEVELAY [SEPHS2] |  |  | 2.87 ± 0.31 | 2.46 ± 0.31
6 | CPPLPAGVSFHIDSAELEPGSQTA [FBXO34] |  |  | 5.03 ± 0.4 | 5.09 ± 0.2
7 | TNAGFLQTESELQELSEVLELLSA [FAN1] |  |  | 3.04 ± 0.21 | 3.03 ± 0.53
8 | RRRWCPAGIMLLALVCLLSCLLPS [SPACA3] |  |  | 2.85 ± 0.55 | 2.77 ± 0.3
9 | YGICREPVGLVMEYMETGSLEKLL [RIPK4] |  |  | 2.29 ± 0.26 | 2.22 ± 0.4
10 | KSVQHVVLQALFYLLDRAVDSFET [PTPN9] |  |  | 3.21 ± 0.38 | 2.58 ± 0.41
11 | GDTVVQGDLQETTVVTGLGPDTQD [PBXIP1] |  |  | 5.56 ± 0.17 | 5.63 ± 0.23
12 | GSVAVVEAECEKSSATTYFWYREA [SLC6A17] |  |  | 2.81 ± 0.48 | 2.62 ± 0.35
13 | GGYTPDLKMSYSRGLIPVKRGPSS [RBMY1A1] |  |  | 3.9 ± 0.14 | 3.8 ± 0.28
14 | LEVPKPGQPSEPEHGPSPGQDTFC [CHIT1] |  |  | 5.22 ± 0.17 | 5.23 ± 0.19
15 | EWNQKRARKAMRNGISPIIIDNTN [N4BP2L1] |  |  | 2.65 ± 0.16 | 3.02 ± 0.55
16 | VHQRGSSTAKKEDINLSVRKLLNR [TRIP13] |  |  | 3.72 ± 0.31 | 3.87 ± 0.25
17 | ASPRRLSNVSSSGSINLLESPQLA [MAP2] |  |  | 4.2 ± 0.2 | 4.12 ± 0.15
18 | TDATAFWWGEWTKWTACSRSCGGG [ADAMTSL2] |  |  | 2.24 ± 0.68 | 2.59 ± 0.6
19 | DEAGGGAEGDSWEEEGFGSSSPVK [WEE1] |  |  | 5.3 ± 0.068 | 5.35 ± 0.26
20 | NHDSHMAKERAHSTASHSSSNSED [PDZK1] |  |  | 5.59 ± 0.17 | 5.61 ± 0.23
21 | KEHAVTMPCTWVMACAYAPSGCAI [GNB5] |  |  | 2.8 ± 0.36 | 2.49 ± 0.59
22 | AVSDGRHMFVWGGYKSNQVRGLYD [KLHDC2] |  |  | 2.28 ± 0.58 | 2.27 ± 0.51
23 | CFITLTTIGFGDYVALQTKGALQK [KCNK9] |  |  | 2.97 ± 0.63 | 2.67 ± 0.59

Row | Sequence | protein stability index [1] | protein stability index [2] | protein stability index [3] | protein stability index [4]
24 | ISVEGINHDIRTANDGDYWRLLNP [CPXM2] |  |  | 2.64 ± 0.44 | 2.7 ± 0.44
25 | TCECLEGFRLAEDGKRCRRKDVCK [MATN2] |  |  | 4.24 ± 0.25 | 4.83 ± 0.28
26 | SRRIPSTDANLPSGGKGFKLRRQP [RAB22A] |  |  | 4.09 ± 0.18 | 4.25 ± 0.23
27 | VTRQPRNLQDLCRIKIRQCIGLQN [ASB7] |  |  | 3.4 ± 0.56 | 3.35 ± 0.39
28 | GAKDHASIQMNVAEVSWEPGRREG [RPS21] |  |  | 4.14 ± 0.49 | 4.41 ± 0.41
29 | PVVKALFGASAAGGLSPVTNLTVT [CDC25A] |  |  | 2.61 ± 0.24 | 2.65 ± 0.2
30 | WRYVSSLPQPLAAHAGAVHNGKIY [KLHL14] |  |  | 2.51 ± 0.26 | 2.73 ± 0.078
31 | QKIQFKRETASLKLLPHQPRIVEM [PDZK1] |  |  | 2.54 ± 0.39 | 
32 | QVLNETRNQYEALVETNRREVEQW [KRT33B] |  |  | 4.24 ± 0.43 | 4.5 ± 0.17
33 | SSSGYSSAEINQDLNIQLLKDGYR [FAM219A] |  |  | 3.67 ± 0.15 | 3.85 ± 0.22
34 | TENRRLESKIREHLEKKGPQVRDW [KRT18] |  |  | 3.92 ± 0.16 | 3.95 ± 0.33
35 | KPYDPPGEKMVAAKVKGEKLDKKL [ATF4] |  |  | 5.12 ± 0.21 | 5.12 ± 0.056
36 | GKEQGQNLARQWNNCAFLESSAKS [RAP1B] |  |  | 4.1 ± 0.17 | 4.13 ± 0.14
37 | LLKFDNSYSLWRSKSVYYRVYYTR [ACBD3] |  |  | 2.41 ± 0.55 | 2.49 ± 0.54
38 | MTTPAGSGSGFGSVSWWGLSPALD [DNAAF3] |  |  | 2.47 ± 0.29 | 2.75 ± 0.36
39 | NQEYKMLLDIKTRLEQEIATYRSL [KRT13] |  |  | 2.58 ± 0.21 | 2.78 ± 0.19
40 | QAQDEVEQERRLSEARLSQRDLSP [FCHSD1] |  |  | 5.46 ± 0.28 | 5.31 ± 0.24
41 | EGTSSIVMEIQKQIEKKEKKLHKI [TAF7L] |  |  | 4.18 ± 0.044 | 4.76 ± 0.15
42 | VLMIAIQLISRMEYVHSKNLIYRD [CSNK1G3] |  |  | 2.86 ± 0.13 | 2.72 ± 0.44
43 | HLVIQNLFEGMIWFLVPISSVICN [CDS1] |  |  | 2.96 ± 0.2 | 3.25 ± 0.41
44 | PLESIDHSVTGFLCEPDPVHFSEA [ALG2] |  |  | 4.48 ± 0.15 | 4.48 ± 0.025
45 | KKTCRRINYCALNKPGCEHECVNM [MATN2] |  |  | 2.8 ± 0.38 | 2.95 ± 0.74
46 | SPPKSPRTTVHDKSAHQTHSSWTP [DNAJC4] |  |  | 4.36 ± 0.15 | 4.41 ± 0.2

Row | Sequence | protein stability index [1] | protein stability index [2] | protein stability index [3] | protein stability index [4]
47 | TKPVVILPCQHNLCRKCANDIFQA [TRIM63] |  |  | 2.36 ± 0.26 | 2.55 ± 0.27
48 | EEKVRDLLWAKFTNSDTPTSFNHM [TOR1AIP2] |  |  | 3.08 ± 0.12 | 3.19 ± 0.13
49 | QLGRALTAHLYSLLQTQHALGDAF [ARFIP2] |  |  | 3.25 ± 0.2 | 3.47 ± 0.57
50 | AVVAVDRQAIFPDTWTLTEEHGLQ [PXN] |  |  | 3.35 ± 0.51 | 3.35 ± 0.34
51 | IIPQVPLFNILAKFNGITEKEYKT [USP39] |  |  | 2.41 ± 0.28 | 2.49 ± 0.28
52 | LNAELEEKMMQEAEKLKAQGEYSR [CCDC89] |  |  | 3.61 ± 0.28 | 3.71 ± 0.39
53 | DRKGYMFDYEYDWIGKQLPTPVGA [CSNK1G3] |  |  | 2.55 ± 0.23 | 2.62 ± 0.25
54 | YAKLAAVAVFFIMLIVYVRFWWL [SEC22B] | 2.52 ± 0.081 | 2.63 ± 0.075 |  | 
55 | GLSDPGKIKRLRSQVQVSLEDYIN [HNF4A] |  |  | 2.78 ± 0.34 | 2.93 ± 0.18
56 | SKKGLSFFAFEHSEEYQQAQHKFL [TCF25] |  |  | 2.85 ± 0.21 | 3 ± 0.15
57 | ELRLVFGPLGDQLHAQLRDLTSSS [ELF3] |  |  | 2.17 ± 0.25 | 2.25 ± 0.29
58 | IQDLCEMLGKYGSSLEFTELLTLV [CASP6] |  |  | 2.34 ± 0.34 | 2.15 ± 0.26
59 | AVKLYNSGDFRSSTEDMERALSEY [P3H4] |  |  | 4.57 ± 0.4 | 4.14 ± 0.26
60 | KRRPKAQPTTLVLPPQYVDDVISR [MED27] |  |  | 4.03 ± 0.12 | 4.06 ± 0.17
61 | MQKRSKAIHSSDEDEDEDDEEDFE [WASL] |  |  | 4.58 ± 0.23 | 4.69 ± 0.21
62 | MLAIITKMTLTQVSTWFANARRRL [IRX6] |  |  | 2.29 ± 0.49 | 2.26 ± 0.27
63 | PRAGKEESGVSVSNSQPTNESHSI [SLC29A1] |  |  | 5.33 ± 0.25 | 5.26 ± 0.27
64 | KEGPMIHSGSVVGAGLPQFQSISL [CLCN6] |  |  | 2.91 ± 0.12 | 2.86 ± 0.35
65 | PAPGKLLGPCVVGYGIYYFIYSTW [SAT2] |  |  | 2.62 ± 0.65 | 2.92 ± 0.46
66 | SLTNDWEDHLAVKHFSVEGQLEFR [HSP90AB1] |  |  | 3.49 ± 0.23 | 
67 | SRLVKYPLLLKEILKHTPKEHPDV [NET1] |  |  | 2.71 ± 0.18 | 2.92 ± 0.32
68 | MKAKQEALVKEREKQLAKKEQSKE [FAM50A] |  |  | 5.62 ± 0.24 | 5.55 ± 0.13
69 | MQSARGPTPSSPLPSVPVSVPASD [PLEKHN1] |  |  | 4.78 ± 0.28 | 4.79 ± 0.11

Row | Sequence | protein stability index [1] | protein stability index [2] | protein stability index [3] | protein stability index [4]
70 | HCTGNEATLAACTSNGWGVTDCKH [LOXL2] |  |  | 3.98 ± 0.24 | 4.21 ± 0.28
71 | PRPQSEESWDEEDKRNYPSLELDK [CHGB] |  |  | 5.52 ± 0.25 | 5.44 ± 0.25
72 | SDRFGRKKVYLTGFALDILFAIAN [SLC22A15] |  |  | 2.51 ± 0.64 | 2.17 ± 0.41
73 | DYGRKAEELLWRKVYYEVIQLIKT [SMG5] |  |  | 2.71 ± 0.57 | 
74 | LEKNHPEEFCEFVKSNTEQMREAF [ZBED1] |  |  | 4.58 ± 0.13 | 4.63 ± 0.16
75 | FSGSNEVDQMNRIVEVLGIPPAAM [DYRK1B] |  |  | 2.94 ± 0.14 | 3.23 ± 0.22
76 | NFLLFDMTTHPLTNNNIKQRLIKK [GOLPH3] |  |  | 2.62 ± 0.22 | 2.81 ± 0.25
77 | QFALTNGDPLNCHSYLSGYISLLL [NR2F2] |  |  | 2.57 ± 0.57 | 2.28 ± 0.3
78 | DFGDMHSYVRSRKRLREEEAARLF [TRIB1] |  |  | 3.5 ± 0.3 | 3.85 ± 0.45
79 | QQFRADPSTASLLLCPGGLDHKLN [TIAF1] |  |  | 3.48 ± 0.28 | 3.58 ± 0.34
80 | PDLNILEDSAESRPWRAGVLAEGD [PSD2] |  |  | 4.87 ± 0.13 | 4.99 ± 0.14
81 | QELIETNQQLRNELQLEQSRAANQ [CEP70] |  |  | 5.122 ± 0.01 | 5.05 ± 0.26
82 | AKGSLGTQIGFADLMGVLTKGVRE [FEM1A] |  |  | 2.49 ± 0.19 | 2.4 ± 0.3
83 | AQSLPGPCAAAREGRLERRECGLA [IRX6] |  |  | 4.42 ± 0.2 | 4.53 ± 0.38
84 | VKTRLEQEIATYRRLLEGEDAHLT [KRT17] |  |  | 3.62 ± 0.14 | 3.77 ± 0.3
85 | NLNREEKIIREIDFYREDEDEEEE [TRIM55] |  |  | 5.37 ± 0.15 | 5.3 ± 0.32
86 | PVPPPSYFATFYSCTPRMNRRMVG [FAM189A2] |  |  | 2.43 ± 0.28 | 2.43 ± 0.33
87 | EPEEPSEIPERRDSGVGASLTRSN [DLC1] |  |  | 5.51 ± 0.31 | 5.46 ± 0.33
88 | AKHLIASMLSKNPEDRPSLDDIIR [PLK2] |  |  | 2.61 ± 0.38 | 2.79 ± 0.24
89 | VERPHSGLPGKVFACLSVLFVTVT [KCNG1] |  |  | 3.03 ± 0.73 | 2.52 ± 0.38
90 | NEYLLNLVATNAHLDHYYQEELPA [FCHSD1] |  |  | 3.25 ± 0.11 | 3.27 ± 0.38
